From article doi:10.1101/2022.06.14.496144, “Crystal structure and functional peculiarities of a primordial Orange Carotenoid Protein (OCPX)” (bioRxiv, 2022)

Biological target: T1, SynOCP1 lacking the N-terminal extension (ΔNTE-SynOCP1) (Synechocystis sp. PCC 6803, UniProt P74102 13-317)
T1 construct: Orange Carotenoid Protein of Synechocystis sp; PCC 6803 (Uniprot P74102) lacking residues M1-F12 from the N-terminus; also called SynOCP1 ΔNTE mutant; source: E. coli C41(DE3) synthesizing echinenone, purified (subtractive IMAC, SEC)
T1 sequence (looked up): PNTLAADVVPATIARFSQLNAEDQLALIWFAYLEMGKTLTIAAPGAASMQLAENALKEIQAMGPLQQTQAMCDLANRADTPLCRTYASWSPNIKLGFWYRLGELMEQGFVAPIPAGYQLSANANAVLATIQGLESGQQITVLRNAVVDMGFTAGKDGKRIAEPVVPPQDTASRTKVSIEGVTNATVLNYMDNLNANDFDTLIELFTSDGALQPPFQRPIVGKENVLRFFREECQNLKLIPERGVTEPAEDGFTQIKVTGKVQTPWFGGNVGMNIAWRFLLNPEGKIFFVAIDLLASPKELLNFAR
Test: SEC; spectrochromatography on Superdex 200 Increase 5/150 with diode-array detection; ΔNTE-OCP 20 μM mixed with FRP 40 μM; 20 mM Tris-HCl pH 7.6, 150 mM NaCl; absorbance spectrum ('oranging') read in the same runs
Details: both partners purified

B1: Fluorescence Recovery Protein from Synechocystis (SynFRP) (natural protein, UniProt P74103 1-109, looked up)
chain: MLQTAEAPWSQAETQSAHALFRKAYQRELDGLLATVQAQASQITQIDDLWKLHDFLSAKRHEIDGKYDDRQSVIIFVFAQLLKEGLVQAEELTFLAADKQSKIKALARL
notes: Fluorescence Recovery Protein of Synechocystis (Uniprot P74103); source: E. coli C41(DE3), purified (subtractive IMAC, SEC)
B1: binds.
